Experiment: soluble fraction after stress (log2 fold change); higher = more stays soluble; pooled small domains, quantitative proteomics
Conditions: stress: 75 degC
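Further: 20 min heating vs room temperature control held 20 min.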

Sequence	soluble fraction (log2)
HMGSFISADEALAKALSHAGLDQSAIRELEMDSELDDDVPHYSIDFKSGNLEYEYEISATDGSVLKFEQD	0.118
HMGSKEQELVILNNILERQLQAINLQKSAAGPMVNLRNVHNTLTKLVEAAGLKNVETYFTDPVIGAAQ	-0.0941
HMGSNTLEDAYKVLGITPDATDDEVRKAYKKMVIQHHPDKVANLGEDVKKAATIKLQEINNAKEIIFKARN	0.0129
HMGSQSYVAIVNERFKESDIVELGGSVGSRTGDIITLHFRNSSPNELKNITGIVYLQVANKVTPKL	-1.26
HMGSTDTLEDALEAAEKISYPVIIKATAGGGGRGMKVASSLEELKKVYHTTKLEAKNAFGNDQVYIEKYL	0.162
HMGSTYGISRVDNETSRTHGWLVTIQRRGVIYRKHFSDGVFGGKQRSFAAAKEYRDEVIAAHP	-2.68
HMGSVVATLRKLIIDGHYPAGTRLAEIPVANALGVSRTPVRLAFRTLQQEGLLQTVGKRGIVVRAF	-1.28
HMGSWDDFFNAIRLDNPNTLQALLQRGFDPNTVDQQGTPALMRALQEQSYRAAEVLADHPQI	-0.603
HMGTAGLSPWHKIAVLMIALGPEGASELMRHFGEDEVEQVVQAIADLKNVPSELQDAVLLEMEGALQEG	0.00911
HMGTDVFIMTGGTRKRGATWSYYFDLGKIDGKRQKKEKGGFKTKKEAETALAKAINEYNNAGA	-0.506
HMGTFIATVEANSLDIYKSMSSNETIGKANKGEVFQILEDMGSGYARVSYNDVEGYLSIRDGDATIEE	0.0208
HMGTGADQVSWKTGDKVTHKKWGEGTVVKVSGSGNDKELDIAFPQQGVKRLLASFAPIKKVT	-0.0162
HMGTGQTNEKLAVLTNIQKTQEQILLTLGAKNPLVNLKQYRETLAKILSLSGYKNSNEFFLDPM	-0.184
HMGTGTYQVWSANGLGVRMRSGPGTGYRILAVYSVGTSVTVLQKGAYWSYIRVGSRTGYMMNQFLVSG	0.609
HMGTGVEQGKQYRTLKRDFDGASGIKVNGDFYRLRTSDTGMTELPAGTEVTFERFDGTTAVVHT	0.0416
HMGTHPGIDSGIISDILALKKELPTRSAAKIITMLTLAGKMEENSIHVKTVNRILYQYGYTRDTLS	-1.92
HMGTITKRTNPSGAVVWRAQIRINKADMPTYSESKTFSKKSLATEWLKRREAEIEANPDLIL	-0.929
HMGTKDVNAAPSAVGRTYDEAIEILNGYKAGYLEEYSDTVPKGTVISQSVQDGQVVIVVSLGPKPS	-0.136
HMGTKVGAPLPGTITEVKVKVGDTVKAGDAVIILEAMKMQNNIEAEVSGTVSSVLVKEGDTVMEGDALITI	-0.0573
HMGTLNLSQAYREWGMAEIEANRDYYGPVRFDDIAFQMSPAGQQLQARFVASYADRLHDAIEGEL	-0.364
HMGTLRPKGTVVFANLPIAADAKEGDMYNISDQFTTTASFKEGAGNVIPAGSNVYRTDDGFWDVL	0.783
HMGTPEQSAQFEQVLEELKNVPGPVMKAMQRAQDIYGYLPIEIQSRIGQAFGVSLEEVYGIATFYSQFNL	-2.55
HMGTQKVQVVNGPINVRSGPGPTFEKIGMVEDQAVYQVVSKKDDWFQISLPGNKTAWVAGWLVKEIK	-0.035
HMGTRHPLPYAFAKAHTVLLEDDGDRLLLHAAENSGPSALGEILRLYDVDALERETASTLANRIAVAYAG	0.175
HMGTSGLTIPRFVSLASGTVHMRAGPGVRYPITWIYKRLGTPLMVMAEHEFWRKVRDAEGTEGWMHRSLLS	0.0559
HMGTSIMIIIVKPETKKERVNDLIHWIESQNLRTHLSTGDYSTIIGVIGDTSKLDSELIRGLDIVENVKRV	-2.18

Sequence	soluble fraction (log2)
HMGTSMDPPVIIVSDGKLIQKGLEVSGLKKQWLYDLIDRKHMKISDIFLLTADKTGKYNLIKRS	-0.0253
HMGTSQSAVKAILAQLISDENKQKPYSDEALSRLLQQQGIDIARRTVAKYREALNIPPAHQRK	0.26
HMGTSRVQSILFDQSQWTINRAVHWLNTHHFISTKIDKTDKYLRFRQFDPNPDSHHATKRTSQGITFILE	-4.37
HMGTTIAMSKLKQVLRWKEEGYSNRKIAQLVGLNKETVNNYISRANADSLSQKELLQLDDFVLDIRLRG	-1.76
HMGTTTGKVNATGVNFRTGPSTSYSSMGKLGIDTAVTILGKSGDWYQVKVNSTGKTGYVFAKYITITSVV	-1.95
HMGTVIGMGRITAGGVNFRETEGGGVIEKLERDTLVEVLTVPSVIDTTHWYQVRYNNRTGYVQAPFVQLLG	-1.7
HMGTVKWFNATKGFGFIVPSDGGKDVFVHITAVQKAGLQGLNEGQKVSYEVAMERGKAAATNLR	-0.782
HMGTVRFYNKERGFGFVVSDDGESVFLPAKALPDGVSDLSPGTRVDYGAALGKKGSQ	0.0973
HMGVAAPMPGTITDVRVKVGDRVQPRTVVMMLEAMKMENEIFAGRAGVVSQVAVEKGASVNTGDLLISIDP	-0.311
HMGVAASEVHREKKESSLQWRQSYNVATDQRRQGKTYKEITEFLNGAELKNSKGGTWSISGVRKMLM	0.0165
HMGVARGQAQVTTRQHVVQPGETLYQISKQYGVTVAEILRYNADIEDNTVKVGQTLQIPTPLP	≥ 1.04
HMGVDMAPESIVGKKGVAATELRPAGKVEIHGQVYDAVSVGMFIKRGTGVKVVRYEAAQIYVEPE	-0.544
HMGVEALTPRQREVLALMAQGRSNGWIAAELGLSEKAIVQHTSNIYDMLGLAVDADDHRRVLAVIHYLT	-1.19
HMGVENDGYVLPRELKKGDTVLIADLGKEATVLSPVDRNGNVEVLAGAAKTRVKLKNLRLIE	0.0345
HMGVEVPRGDGSTVVRVRAGSSLADFAERIGADPAALITVLFRMGEMATVNQSLDEDTFKLLGAELGYDVQ	-0.704
HMGVGIAEAMKHVADEDYGDLSSEFQRIFSAVDGGSTLGDAVRAQMRATSSAGLRRTLSVLAMSVE	0.553
HMGVGTTDERLAVLNQIASRQTEALEKLGPNNPLVGLGQIRNTLSKMLEISGYPDSNQFFKQVPLDYEPPP	0.156
HMGVIDTLSGPQKAAAILVAIGRPSASRLLKHFNAEDLRKLAGHARTLEPISPLDFEHLVKQFEDSFAEG	-0.874
HMGVIGADIRALRVSRGWTLSDLAEALDRSVGWLSQVERDVSEPALADIRRIAGIFDLPVSFFFSD	-2.64
HMGVLDFSAQLLKHLEMNGGQTPLGDKSPAEEIYAVFGVSKKVFKKAVGDLYRKRLIEISSNGIRMTS	-2.14
HMGVLGVDALAAAAEVSVDTVRYYQHLGLLEPPRREGRRAVYGPSHLARMGEIRRLAAAGFTLDQIRQLAE	-2.81
HMGVPTEQQSLIGKSGIAATDLRPSGKVEIDGKRYDAVSNYAGFIAKGTPISVVRYETGQIYVE	0.205
HMGYDDVIVINGKNETYGFPTKVEDDPVLSLVIKGDRSIDYAEERRLFYVAMTRTKNRVFFVAP	0.0548
HMGYGEQEAEATKYMSLHAIMSADETLSKMYTPENQHKLMTHVMEQNGIKNVKDYLTPPSELP	0.016
HMGYPYDTVTTAKVNLRAKRSTSSDILKKIPEGATVTVKGVTGTFASVDYNGTSGYVKVDYLV	-0.46
HMGYSSKISELLTKYNMNASELAQKVGVPPTTIYSIIKRDSKKADIEVLIKIAKLFNVPVEYF	-2.38

Sequence	soluble fraction (log2)
HMGYTPGVVIQKSAILEEINQPDLALGMMLEAVKKDSQNLDILNRLVTLLIDQKKNEDAEIYNKKIIT	0.234
HMHAGMKSWTIQYEKSPIYGSFLMYKDGNIYIQKEDNVVVHFPLDRFSQNDQAILKSRIEKIDQINKSS	-0.761
HMHAPKIIVLTINPDKIRDVIGPGGKMIKSIVAATGVKMDVEDDGKIHISSSDQKAADEAIRMINEITAEA	0.146
HMHAPLEVGSVVRIEGQKALGTILSISDREAIVALGALKTTIPLKRLHGVSPAEAQRHLRKTTPAQAVR	-0.665
HMHAQDTLMTRAGETRTVKILEIGLEEIKYRIWGLDDSPVIVIDKIDVKQIVFSNGEKMTIVQ	-1.47
HMHDLTERQREILQTLASGKMALREILSILSQPPSLRTLRDELYHLKRIGLVDTMGYGRGATWFLTQ	-0.223
HMHDNPLSAQEQRVLDLIAAGKTSKEIASQLFLSDGTVRNYTTSIFNKLNANNRVEAINIAQENGW	0.866
HMHDPRLPLPGTLLAREFQGRDIVVKVLDNGFEFDGRRYKSLSAIAQEVTGSKWNGFLFFGI	-1.33
HMHDWDITTAAKPEKIFELFSDIPVLETGLKHGTVTLLIDHEPYEVTTFRVDGNYTDGRHPDSVAFT	0.189
HMHGESIPIPNILHKRYADAEQIVNNLRLEIEVTDTGYVRSLPPGAILEQTPGPGERVKSGHIIYVTINAA	-1.42
HMHGETLAAKRREEIKVRIQNIYDQSEQIFGYRKITATLRSQGVVVSEKLVSQLMRELEISSVS	-3.92
HMHGSSVEIPNIYGLPASEAVQLLDKADLRYEVIDSVYTTEVPKGAVYDLSPKAGSRVKAGRIIFLTLNA	-0.942
HMHGSTAVVPQIKNMPYSEASVRLGANGLAIEINDSVYDRDMPPGTVIESWPKAGAVVKQGRQVYVTVTA	-0.425
HMHHGALKQALLDETARILAEEGESALSLRRLASNLGVSRTAPYNHFDNKDALLSAVAEEGFRR	-0.0868
HMHIELNDTQKRILNFLSDDPNLSAVRLAEQLGISSRNVEKNIKKLKEYGILIRHGSPKNGYWEIVV	0.0385
HMHITSFTIKQADQIVGTTPVREQAVGAAKARAQQTGTPVSVIAYLDTGEEREVIIHPDGTN	0.479
HMHKLTSRQEEILQFIKDYLSEIGYPPTRSEIAQKMGFRSTNAAEEHLRALARKGAIEILPGPSRGLRLP	-1.13
HMHKTEIKIPSREDILAVLRQAQAPLTREQVFEHLKLTEDQIPIIEKRLNAMERDGQLMPNRKGMLLLSTK	-0.0438
HMHKYEYESLNHVNVGSNLKYISTHFGQPKLIKKSKYHENLNFAYYLEKKFILTLILEGDRVNAYTITG	-0.732
HMHLEKGEVVVPDLKGLTMRQVGELLGKLNLRYSFSGTGLAVKQFPESGQIVNQGDIIEVIF	-0.56
HMHLLPAREQVAAYLRKAILRQEIREGTILNLADTARQMGVSVTPVREALQLLAAQGLVRLRPNKGAVVMG	-1.68
HMHLNVYRDEDEAMLAFKDHLIGTHQPIRVRVEKALPDGTMGHKIVDTTIGRIVFNHNIPQD	-0.185
HMHLTEAPLIKITYFEADQKKSGGQYITIINHLKKINEYENLLVLENGVKINIDDIYELESV	-0.191
HMHMNFGEILQTKRKEKGFTQEELAHQLLVSSKTISNWETNKTTPDIDNVIRISQLFDISLNQLLLE	-1.03
HMHMSKKLADSIISLRRKHGFSQEQLAEKIGVTRQAISNWERGTATPDVETLNLIAKLFDMDLLAIINGE	0.0813

Reference: the domain aggregation screens of Martell et al. (2025)
